Measured values from patent US10227575B2, “Multi-domain enzymes having cutinase activity, compositions comprising same and uses thereof” (OZYMES, priority 2015, dated 2019).
Marks after values point to notes of the source that are not given here.

What was measured:
[1] = Thermostability of purified enzymes; format: physicochemical
Protocol: Enzyme thermostability was studied over a temperature range of 50-95° C. using the purified enzyme preparations. Aliquots were incubated at the desired temperature for 5, 10, 30, 60, and 120 minutes, chilled on ice, and assayed for remaining activity towards p-NP-palmitate (pNPP) at room temperature.

pH dependence of enzymes = format: biochemical; details: for Relative activity (%): highest activity = 100%
Protocol: The influence of different pH values (from 5.5 to 11) on the activities of the purified enzymes was examined in three buffer systems (sodium acetate, sodium phosphate, and Tris-HCl) at room temperature using pNP-palmitate (see esterase assay in Example 20.1) as a substrate at a final substrate concentration of 0.8 mM.

[2] = Stability of KrCUT in stabilisation buffer; format: physicochemical
Protocol: For stability testing, culture medium showing KrCUT activity, and containing 100 mg total protein was used. Stabilisation buffer composed of sodium gluconate 1-5%, sodium carbonate 1-5%, sodium citrate 1-5% and propylene glycol 1-5% was prepared; 50 mL enzyme solution was added to 200 mL of buffer and stored at room temperature, after mixing. Samples were taken at defined time periods and the enzymatic activity was measured using p-nitrophenyl dodecanoate as substrate.

[3] = Pectin release from hemp fibre (TBA method)
Protocol: Hemp fibres (German variety, 150 mg) were treated with either pectate lyase (PL, 10 U) or PL combined with various amounts of KrCUT (40, 60 and 100 U). Control experiments containing no enzyme or 100 U of KrCUT were conducted for comparison. After incubation at 37° C., aliquots of the reaction mixture were taken at 1 h 30 min and 3 h, and analyzed for pectin degradation products using the thio-barbituric acid (TBA) method (52) which detects released unsaturated compounds spectrophotometrically at 550 nm.
The quantity of pectin released from natural hemp fibre by KrCUT in conjunction with the action of a thermostable pectate lyase was assessed as described in Example 1, section 1.13. The thermostable pectate lyase alone released a certain amount of pectin as expected of the pectinolytic activity (Xiao et al., 2008).

[4] = KrCUT activity in the presence of chelating agents; format: biochemical
[5] = Hydrolysis of cutin, GC-MS of released monomers; format: biochemical, Apple (Golden Delicious)
Protocol: Apple (Golden Delicious) cutin was used as substrate. The outer layer of the fruit was peeled by hand and cutin preparation carried out as described by Gerard et al. (1993) with minor modifications. Discs of apple peels were incubated at 50° C. in oxalate buffer [(oxalic acid (4 g/L)/ammonium oxalate (16 g/L)] for 16 h and then collected and washed several times with deionized water. The sample was treated with 0.5% Novozymes Aspergillus niger pectinase (Sigma P2736) in 100 mM phosphate citrate buffer pH 5.8 for 16 h. The cutin sheets were washed with ethanol, followed by several washes with chloroform, and then incubated in chloroform at 45° C. for 16 h, and finally dried to constant weight. The cutin was ground in a Cyclone sample Mill (UDY Corporation, Fort Collings, Colo., USA).
A typical reaction mixture (2 mL) contained 20 mg cutin and an appropriate amount of cutinase in 25 mM sodium phosphate buffer, pH 8.0. The mixture was incubated in a water bath at 37° C. with gentle shaking for 16 h. Assays were conducted in duplicate. At the end of the reaction, the remaining cutin was removed by centrifugation (10 min, 5000 rpm). The resulting solution was acidified with hydrochloric acid and cutin monomers extracted with chloroform/methanol, according to Bligh and Dyer (1959). The organic phase was removed by evaporation under an air stream and the dried residue dissolved in 1 mL chloroform/methanol (85:15) and used for further derivatization. Trimethylsilylation of cutin monomers was performed with BSTFA [N, O-bis(trimethylsilyl) trifluoroactamide] and TMCS (trimethylchlorosilane) provided by the supplier in the ratio 99:1 (Supelco, Bellefonte, USA) at 70° C. for 3 h, and the composition of the mixture determined by GC-MS.
Cutin monomers were identified by GC-MS on an Agilent 6890 gas chromatography system coupled to a 5973 quadrupole mass spectrometer. 1 μL was injected under splitless condition on a 50 m×0.20 mm×0.33 μm DB-5MS capillary column (Agilent). The oven temperature program was 70° C. (for 1.39 min) to 136° C. at 64° C./min and to 290° C. at 2.5° C./min (for 55 min). Helium was used as carrier gas. The temperature at the injection port was 250° C. The detector was run in El mode at 70 eV. Masses were scanned between 50 and 650 amu.
Components were identified by comparison of the MS spectra of their trimethylsilyl (TMSi) derivatives, as methyl ester TMSi ether or as TMSi ester TMSi ether, with published spectra (Kallio et al., 2006; Philipps et al., 2002).
To measure cutinase activity, assays of cutin hydrolysis were performed as described in Example 1, section 1.7 at two different enzyme concentrations. Characteristic cutin components, C16 and C18 hydroxyl fatty acids, were identified by GC-MS analysis.

[6] = pH 6.5, sodium phosphate buffer
[7] = pH 7.0, sodium phosphate buffer
[8] = pH 7.5, sodium phosphate buffer

B1: KrCUT: mature Kineococcus radiotolerans cutinase, amino acids 34-294 of SEQ ID NO: 1; SEQ ID NO: 6 (protein)
chain: ATCSDVDVVFARGTGETPGLGVVGGPFVRSLTGELSDRTVTSHAVDYAASSSQASAGPGATAMSAHVREVAAACPSTRFVLGGYSQGATVTDIALGIRTGTTTGTPVPAELAGRVAAVVVFGNPLGLSGRTIATASSTYGPKSKDYCNSSDSVCGSAPKTGTGGHLSYASNGSTTDGARFAAGLVRAAGTPTTPTPTPTPTPVPTTCVRDSTRDHVAADRAVSLYGRAYARGSRDSLGATSSYNVVSLQQVEGGWRLVTAC
modifications: Kineococcus radiotolerans; (1)..(261) KrCUT (lacking residues 1-33 of ssKrCUT)
With B1 the “Relative activity remaining (thermostability)” value (shortened to “Relative activity remaining”) ([1]; 50° C., 5 min, time 0 = 100%) was 61 ± 5%, the “Relative activity remaining” value ([1]; 50° C., 10 min, time 0 = 100%) was 31 ± 4% and the “Relative activity remaining” value ([1]; 50° C., 30 min, time 0 = 100%) was 12 ± 2%. For the same molecule, the “Relative activity remaining” value ([1]; 50° C., 60 min, time 0 = 100%) was 6%, the “Relative activity remaining” value ([1]; 55° C., 5 min, time 0 = 100%) was 45 ± 4% and the “Relative activity remaining” value ([1]; 55° C., 10 min, time 0 = 100%) was 26 ± 4%. The “Relative activity remaining” value ([1]; 55° C., 30 min, time 0 = 100%) was 4%, the “Relative activity remaining” value ([1]; 60° C., 5 min, time 0 = 100%) was 34 ± 4% and the “Relative activity remaining” value ([1]; 60° C., 10 min, time 0 = 100%) was 12 ± 2%. For the same molecule, the “Relative activity remaining” value ([1]; 65° C., 5 min, time 0 = 100%) was 19 ± 2%, the pH opt. (pH dependence of enzymes) was 8.5 and the “Relative activity (%)” value (pH dependence of enzymes; [6]) was 22 ± 1%. For the same molecule, the “Relative activity (%)” value (pH dependence of enzymes; [7]) was 53 ± 2%, the “Relative activity (%)” value (pH dependence of enzymes; [8]) was 72 ± 4% and the “Relative activity (%)” value (pH dependence of enzymes; pH 8.0, Tris/HCl) was 87 ± 6%. For the same molecule, the “Relative activity (%)” value (pH dependence of enzymes; pH 8.5, Tris/HCl) was 100* %, the “Relative activity (%)” value (pH dependence of enzymes; pH 9.0, Tris/HCl) was 96 ± 4% and the “Relative activity (%)” value (pH dependence of enzymes; pH 9.5, Tris/HCl) was 76 ± 7%. The “Relative activity (%)” value (pH dependence of enzymes; pH 10, Tris/HCl) was 37 ± 5%, the initial activity present ([2]; 9 months at room temperature) was “up to 65%” and the “time after which activity loss could be observed” value ([2]; room temperature) was 4 months. For the same molecule, the “pectin released from hemp fibre” value ([3]; highest concentration, absence of pectate lyase) was “negligible amounts”, the “pectin degradation products detected” value ([3]; increasing amount of cutinase, fixed pectate lyase) was “higher percentage of pectin degradation products” and the “effect of EDTA on KrCUT activity” value ([4]; EDTA 10% w/v) was “does not inhibit”. For the same molecule, the “activity retained in the presence of GLDA” value ([4]; GLDA 5% w/v) was 100%, the “10,16-dihydroxyhexadecanoic acid released, Area (%)” value ([5]; 20 Units cutinase) was 39.25 ± 2.5% and the “18-hydroxy-octadeca-9,12-dienoic acid released, Area (%)” value ([5]; 20 Units cutinase) was 18.0 ± 6.3%. For the same molecule, the “9,10,18-trihydroxyoctadec-9 enoic acid released, Area (%)” value ([5]; 200 Units cutinase) was 6.25 ± 0.40%, the “9,10,18-trihydroxyoctadec-10,12-dienoic acid released, Area (%)” value ([5]; 200 Units cutinase) was 13.25 ± 0.40% and the “9,10,18-trihydroxyoctadecanoic acid released, Area (%)” value ([5]; 200 Units cutinase) was 25.55 ± 0.10%. For the same molecule, the “9,16-dihydroxyhexadecanoic acid released, Area (%)” value ([5]; 200 Units cutinase) was 3.81 ± 0.62%, the “10,16-dihydroxyhexadecanoic acid released, Area (%)” value ([5]; 200 Units cutinase) was 27.74 ± 0.41% and the “18-hydroxy-octadeca-9,12-dienoic acid released, Area (%)” value ([5]; 200 Units cutinase) was 2.22 ± 0.13%.

B2: Am-Kr: chimeric variant: AmCUT fused to the T/P-rich linker domain and polymer binding domain of KrCUT, SEQ ID NO: 27 (protein)
chain: ACSDLEIVFARGSGEAPGLGITGTPLVSDVKSALSSASVSSYAVDYAASYDQTSAGPGATDMSNHIKSTAAACPDTKFAIGGYSQGASVTDIAIGIRTYLGTGQTIPTELAPRVVAVIAFGNPLGLYGQTIKTASPTYGPKSLEFCNRGDNVCGGTGTGPGYGHLSYARDGSVDQAAAFIAKQYNASAGTPTTPTPTPTPTPVPTTCVRDSTRDHVAADRAVSLYGRAYARGSRDSLGATSSYNVVSLQQVEGGWRLVTAC
modifications: YebF carrier; Am-Kr variant
In the case of B2, the pH opt. (pH dependence of enzymes) is reported as 9.5, the “Relative activity (%)” value (pH dependence of enzymes; [6]) is reported as 23 ± 2% and the “Relative activity (%)” value (pH dependence of enzymes; [7]) is reported as 46 ± 3%. The “Relative activity (%)” value (pH dependence of enzymes; [8]) was 54 ± 3%, the “Relative activity (%)” value (pH dependence of enzymes; pH 8.0, Tris/HCl) was 84 ± 2% and the “Relative activity (%)” value (pH dependence of enzymes; pH 8.5, Tris/HCl) was 88 ± 9%. For the same molecule, the “Relative activity (%)” value (pH dependence of enzymes; pH 9.0, Tris/HCl) was 91 ± 5%, the “Relative activity (%)” value (pH dependence of enzymes; pH 9.5, Tris/HCl) was 100* % and the “Relative activity (%)” value (pH dependence of enzymes; pH 10, Tris/HCl) was 47 ± 4%. The “Relative activity (%)” value (pH dependence of enzymes; pH 10.5, Tris/HCl) was 10 ± 1%.

B3: CfCUT: mature wild-type cutinase from Cellulomonas flavigena, SEQ ID NO: 28 (protein, listed as Cellulomonas flavigena)
chain: APACPDVELVFARGTGEAAGLGIVGRPLERALAAELPGRTVVATAVDYAASSSQASAGPGSGDMVAKVRSRAAACPGTQFVLGGYSQGATVTDLALGIRTGVTAGTALPEDLAARVAAVVVYGNPLGLTRRTIAQAAPAFATRTVEYCNAGDPVCEPGGGRFTAHITYATNGTVLEGARFAAARVTAPAPTPTPGPTGTPAPVPSAEPTPAPGDTCVTASSLQHVRDGRAYPLWMRTYARGSGDPLGVLSSRTVVSLQADGTDTWRKVAAC
In the case of B3, the pH opt. (pH dependence of enzymes) is reported as 9.5, the “Relative activity (%)” value (pH dependence of enzymes; [6]) is reported as 13 ± 2% and the “Relative activity (%)” value (pH dependence of enzymes; [7]) is reported as 40 ± 4%. For the same molecule, the “Relative activity (%)” value (pH dependence of enzymes; [8]) was 65 ± 5%, the “Relative activity (%)” value (pH dependence of enzymes; pH 8.0, Tris/HCl) was 62 ± 2% and the “Relative activity (%)” value (pH dependence of enzymes; pH 8.5, Tris/HCl) was 85 ± 6%. The “Relative activity (%)” value (pH dependence of enzymes; pH 9.0, Tris/HCl) was 93 ± 9%, the “Relative activity (%)” value (pH dependence of enzymes; pH 9.5, Tris/HCl) was 100* % and the “Relative activity (%)” value (pH dependence of enzymes; pH 10, Tris/HCl) was 31 ± 1%.

B4: Cf-TP: chimeric variant: catalytic and polymer binding domains of CfCUT with T/P-rich linker domain of KrCUT, SEQ ID NO: 29 (protein)
chain: APACPDVELVFARGTGEAAGLGIVGRPLERALAAELPGRTVVATAVDYAASSSQASAGPGSGDMVAKVRSRAAACPGTQFVLGGYSQGATVTDLALGIRTGVTAGTALPEDLAARVAAVVVYGNPLGLTRRTIAQAAPAFATRTVEYCNAGDPVCEPGGGRFTAHITYATNGTVLEGARFAAARVTAAGTPTTPTPTPTPTPVPTTCVTASSLQHVRDGRAYPLWMRTYARGSGDPLGVLSSRTVVSLQADGTDTWRKVAAC
modifications: YebF carrier; Cf-TP variant
With B4 the “Relative activity remaining” value ([1]; 10 min) was 43 ± 3%, the pH opt. (pH dependence of enzymes) was 9.5 and the “Relative activity (%)” value (pH dependence of enzymes; [6]) was 12 ± 1%. The “Relative activity (%)” value (pH dependence of enzymes; [7]) was 22 ± 1%, the “Relative activity (%)” value (pH dependence of enzymes; [8]) was 36 ± 1% and the “Relative activity (%)” value (pH dependence of enzymes; pH 8.0, Tris/HCl) was 65 ± 7%. The “Relative activity (%)” value (pH dependence of enzymes; pH 8.5, Tris/HCl) was 88 ± 8%, the “Relative activity (%)” value (pH dependence of enzymes; pH 9.0, Tris/HCl) was 95 ± 3% and the “Relative activity (%)” value (pH dependence of enzymes; pH 9.5, Tris/HCl) was 100* %. The “Relative activity (%)” value (pH dependence of enzymes; pH 10, Tris/HCl) was 35 ± 4%.
